The results in this text go back to PMC7948961, “Proteomic identification and validation of novel interactions of the putative tumor suppressor PRELP with membrane proteins including IGFI-R and p75NTR” (The Journal of Biological Chemistry, 2021).

To fix the notation:
B1: Recombinant, soluble p75NTR (rsp75NTR), extracellular domain of human p75NTR (residues 1-161) with a C-terminal hexahistidine tag (domain or fragment)
chain: KEACPTGLYTHSGECCKACNLGEGVAQPCGANQTVCEPCLDSVTFSDVVSATEPCKPCTECVGLQSMSAPCVEADDAVCRCAYGYYQDETTGRCEACRVCEAGSGLVFSCQDKQNTVCEECPDGTYSDEANHVDPCLPCTVCEDTERQLRECTRWADAECE
modifications: Printed residues 1-161 are read as mature numbering (signal 1-28, offset +28): 161+28=189 falls at the end of the fourth cysteine-rich repeat, and the same paper's IGFI-R 1-905 is mature numbering …
B2: Recombinant PRELP (rPRELP), human PRELP with a C-terminal FLAG tag, from Mimic Sf9 cells (natural protein, UniProt P51888 21-382, looked up)
chain: QPTRRPRPGTGPGRRPRPRPRPTPSFPQPDEPAEPTDLPPPLPPGPPSIFPDCPRECYCPPDFPSALYCDSRNLRKVPVIPPRIHYLYLQNNFITELPVESFQNATGLRWINLDNNRIRKIDQRVLEKLPGLVFLYMEKNQLEEVPSALPRNLEQLRLSQNHISRIPPGVFSKLENLLLLDLQHNRLSDGVFKPDTFHGLKNLMQLNLAHNILRKMPPRVPTAIHQLYLDSNKIETIPNGYFKSFPNLAFIRLNYNKLTDRGLPKNSFNISNLLVLHLSHNRISSVPAINNRLEHLYLNNNSIEKINGTQICPNDLVAFHDFSSDLENVPHLRYLRLDGNYLKPPIPLDLMMCFRLLQSVVI
notes: Proline and arginine-rich end leucine-rich repeat protein (PRELP), human; secreted into the supernatant; No cleavage of the FLAG tag is described; source: Mimic Sf9 (baculovirus), purified from the supernatant (DDDDK-tagged Protein Purification Gel twice, Benzonase, SEC)

Assay [1] addresses B2. The assay is described as follows: SPR; Biacore 2000; rPRELP immobilised by amine coupling on CM5 at around 4000 RU; rsIGFI-R or rsp75NTR injected at 30 μl/min; 10 mM HEPES pH 7.5, 150 mM NaCl, 0.05% Tween-20, 15 °C; KD from fitting the equilibrium curve, three independent measurements. The note with it: both partners purified.
Assay [2] has as its target T1, Recombinant, soluble IGFI-R (rsIGFI-R), extracellular domain of human IGFI-R (residues 1-905) with a … (human, UniProt P08069 31-935).
T1 construct: Insulin-like growth factor 1 receptor, human, extracellular domain, residues 1-905; 31-935 of the precursor P08069; also called extracellular domain of IGFI-R; source: ExpiCHO, transiently transfected, purified from the supernatant (Ni-NTA, SEC)
The description is as above. Particulars: both partners purified.

Broadly, the Kd is the free concentration of one partner at which half of the binding sites on the other are occupied at equilibrium, for simple one-to-one binding. For B1, the Kd in assay [1] is 12.1 µM.

As to B2, the Kd in assay [2] amounted to 6.8 µM.
